Source: patent US6936457

Biological target: human neuronal nicotinic acetylcholine receptor α7 subunit (human), P36544
Sequence (P36544 23-502 limits assumed): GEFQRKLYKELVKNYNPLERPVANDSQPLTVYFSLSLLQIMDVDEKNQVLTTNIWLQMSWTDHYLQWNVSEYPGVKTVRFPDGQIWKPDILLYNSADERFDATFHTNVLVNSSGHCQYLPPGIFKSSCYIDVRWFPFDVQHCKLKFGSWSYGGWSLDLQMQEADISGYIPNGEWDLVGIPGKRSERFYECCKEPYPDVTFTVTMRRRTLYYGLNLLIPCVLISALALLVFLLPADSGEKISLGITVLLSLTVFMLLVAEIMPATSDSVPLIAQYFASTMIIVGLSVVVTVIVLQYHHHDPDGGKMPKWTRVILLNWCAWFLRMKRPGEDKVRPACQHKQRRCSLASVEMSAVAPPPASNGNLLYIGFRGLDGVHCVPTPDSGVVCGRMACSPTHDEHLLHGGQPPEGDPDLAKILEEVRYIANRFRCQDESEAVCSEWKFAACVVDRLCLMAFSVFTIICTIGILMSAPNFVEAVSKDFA

B1: α-bungarotoxin, P60615 22-95 (peptide)
chain: IVCHTTATSPISAVTCPPGENLCYRKMWCDAFCSSRGKVVELGCAATCPSKKPYEEVTCCSTDKCNPHPKQRPG
modifications: not checked
IC50: 3 nM | percent of [3H]-MLA binding displaced: 65%
